Measured values reported in patent US11491212.

B1: FIXa-Y155F/R338E/R403E/E410N (protein)
chain 1: not shown
chain 2: not shown
B2: FIXa-D203N/F205T/R338A (protein)
chain 1: not shown
chain 2: not shown
B3: FIXa K228N/K247N/N249S/R318Y/R338E/R403E/E410N (protein)
chain 1: not shown
chain 2: not shown
B4: FIXa-D203N/F205T/R318Y (protein)
chain 1: not shown
chain 2: not shown
B5: FIXa-D203N/F205T/E410N (protein)
chain 1: not shown
chain 2: not shown
B6: FIXa-D203N/F205T/R338E (protein)
chain 1: not shown
chain 2: not shown
B7: FIXa R318Y/R338E/R403E/E410N/T412V (protein)
chain 1: not shown
chain 2: not shown
B8: FIXa-D203N/F205T/K228N (protein)
chain 1: not shown
chain 2: not shown
B9: FIXa R318Y/R338E/E410N/T412V (protein)
chain 1: not shown
chain 2: not shown
B10: FIXa R318Y/R338E/R403E/E410N/T412A (protein)
chain 1: not shown
chain 2: not shown
B11: FIXa-Y155F/R318Y/R338E/R403E (protein)
chain 1: not shown
chain 2: not shown
B12: FIXa-D203N/F205T/R338E/R403E (protein)
chain 1: not shown
chain 2: not shown
B13: FIXa R318Y/R338E/T412A (protein)
chain 1: not shown
chain 2: not shown
B14: FIXa-R338E/R403E/E410N (protein)
chain 1: not shown
chain 2: not shown

molecular target: Factor X (FX), P00742
Sequence (P00742 whole entry, looked up): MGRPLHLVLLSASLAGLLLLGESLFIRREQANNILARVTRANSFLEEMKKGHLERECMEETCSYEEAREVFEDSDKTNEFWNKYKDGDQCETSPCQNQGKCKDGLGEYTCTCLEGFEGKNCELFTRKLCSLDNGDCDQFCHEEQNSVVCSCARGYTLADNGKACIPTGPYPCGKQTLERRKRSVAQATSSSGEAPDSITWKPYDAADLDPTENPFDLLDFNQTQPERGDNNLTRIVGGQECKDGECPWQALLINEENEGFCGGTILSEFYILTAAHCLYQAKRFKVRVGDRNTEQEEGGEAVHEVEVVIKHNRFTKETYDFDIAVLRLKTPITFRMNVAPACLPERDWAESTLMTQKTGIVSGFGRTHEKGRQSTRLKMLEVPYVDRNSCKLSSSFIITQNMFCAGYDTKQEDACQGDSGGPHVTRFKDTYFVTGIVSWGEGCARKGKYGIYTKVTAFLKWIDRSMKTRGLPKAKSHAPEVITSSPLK

Going from B1 to B2, the kcat falls from 5.9 s⁻¹ to 2.3 s⁻¹ (2.6-fold).

Compared with B4, B5 is 1.9-fold higher in kcat: 0.9 s⁻¹ for the first, 1.7 s⁻¹ for the second.

Going from B6 to B8, the kcat falls from 2.5 s⁻¹ to 0.6 s⁻¹ (4.2-fold).

Compared with B11, B12 is 5.7-fold lower in kcat: 5.1 s⁻¹ for the first, 0.9 s⁻¹ for the second.

In the case of B14, the kcat is reported as 5.8 s⁻¹.

B2 and B4 are within 1.5-fold of each other in KM: 0.0385 µM for the first, 0.0475 µM for the second.

First: B5
Second: B6
The KM of the first is 1.9-fold higher: 0.0455 µM for the first, 0.0241 µM for the second.

Going from B8 to B11, the KM rises from 0.0399 µM to 0.0671 µM (1.7-fold).

B12 and B14 are within 1.5-fold of each other in KM: 0.0511 µM for the first, 0.0367 µM for the second.

B2 and B4 are within 1.5-fold of each other in KM for FX activation by FIXa in the Xase complex (FVIIIa/PC-PS/Ca2+), fluorogenic Spectrafluor FXa assay: 0.0385 µM for the first, 0.0475 µM for the second.

Compared with B5, B6 is 1.9-fold lower in KM for FX activation by FIXa in the Xase complex (FVIIIa/PC-PS/Ca2+), fluorogenic Spectrafluor FXa assay: 0.0455 µM for the first, 0.0241 µM for the second.

B8 and B12 are within 1.5-fold of each other in KM for FX activation by FIXa in the Xase complex (FVIIIa/PC-PS/Ca2+), fluorogenic Spectrafluor FXa assay: 0.0399 µM for the first, 0.0511 µM for the second.

B14 gave a KM for FX activation by FIXa in the Xase complex (FVIIIa/PC-PS/Ca2+), fluorogenic Spectrafluor FXa assay of 0.0455 µM.

B3 and B7 are within 1.5-fold of each other in kcat (Catalytic activity of FIXa variants): 6.1 s⁻¹ for the first, 7.9 s⁻¹ for the second.

B9 and B10 are within 1.5-fold of each other in kcat (Catalytic activity of FIXa variants): 6.3 s⁻¹ for the first, 8.4 s⁻¹ for the second.

In the case of B13, the kcat (Catalytic activity of FIXa variants) is reported as 7 s⁻¹.
